This note sets out measurements from the DeepSol protein solubility set.

This series in a line: soluble on expression in E. coli; label from the status in PepcDB or PDB records.
As to “MKIVIAPDSFKESLSALEVAEAVERGFRTVFPEAEYVKVPMADGGEGTVRSLVDATGGRIVETEVTGPLGEPVRAFFGLLGDGKTAVIEMAAASGLHLVPRDRRNPLVTTTRGTGELILAALDAGATHLIIGIGGSATNDGGAGMVQALGGRLLDEDGCDIGPGGGALADLHAIDLSGLDPRLGGVRIDVACDVDNPLTGPNGASAIFGPQKGATPDMVAVLDRNLAHYADVIRRDLGKQVGDIPGAGAAGGLGAGLLAFLPAELKRGVEIVIETVQLAERVKDADLVITGEGRIDGQTVFGKTPIGVAKTAKQFGVPVIGIAGSLGDDSAVVLDHGIDALFTIVPGVVPLEKALEQAEHYVTQTARHIASVYRLGQMKGTSSS”, the “soluble on expression in E. coli” value is given as “not soluble”.
With “MNYLLIDTSNQPLSVAIMKDNEVIAEKTTDIKKNHSVQLMPEIAEILTESKINKTEITDIVVAEGPGSYTGLRIGVTVAKTLAYALNTNLYGVSSLKALASTVKDSTKLLVPIFDARREAVYAGVYQYQDNELITIIDDTYIPIFELIEKLHQLNQPYVFVGFHIEKIKHLLDSDIVEQLPQASSMKQLIQKPENIHSFTPKYHKLSEAERNWLNQQENNLEHHHHHH”, the “soluble on expression in E. coli” value is given as “not soluble”.
Take “MDGCYGISDSVGMITQPYRLYVERTDCKKNMARYYAMEITTTLFGDACLTRSWGRIGKRGQSKMHHFEREEEAVDLFLTLTRQKRSRGYRPATGRDRGLEHHHHHH”: the “soluble on expression in E. coli” value was “not soluble”.
On to “MQVSIVNEHKYRELEPLNEMLVKRGGVKMIPEPKFVISGLVDNEEYVIKLRIDLADEFRYSYQNQQWTPFAPSTKNSKLSAITETEHRKETGATWNMRIVQFDKLLITREFNDIQRNVIHVEPNHKYIPVLTIQNVTTGKSTEFQFQQMEFIAVKSYQSARIRHTKRAPRKMNLAPGSSQKPQLIVPDILHSPTYGFTAAPPPFPFEYWLLYPQIQYQIQQLAYSLPMGPPMVPIHHIQCTEASQRVYAPEYGWNSILMPGAHKEQDDHYMFHHEIWAPQDHELEKLHVLTEQKNKPSETPQ”, for which the “soluble on expression in E. coli” value is “not soluble”.
“MGSDKIHHHHHHMTPTVLLANPRGFCAGVDRAIAIVERALEKFGAPIYVRHEVVHNTFVVDDLKRKGAVFVEELSEVPAGATVIFSAHGVSQAVRTEAAARGLTVFDATCPLVTKVHVEVSKMRDKGYEIVMIGHKGHPEVEGTLGQSAGGMYLVETPGDVATLEVTNPDCLAYVTQTTLSVDDAARVVDALRARFPTITGPKKDDICYATQNRQDAVKHLASQCDVVIVVGSPTSSNSNRLREVAENLGIAAYMVDNADEIDPRWVSGNQRVGVTAGASAPDVLVRAVIDRLERLGICSVSELDGVQEKVGFPLPRELA”: the “soluble on expression in E. coli” value is on record as “not soluble”.
For “MGVMKGIEFSESKLKEILDQLPIEAQSAFAASCAQRIFTCYVEYARVAKSKKVDLDAYSEAISYVWNAVIAGNHDAIILNGLLERCMAVLPSEEDAWESGTPYAEDAAAAIIYSLRSLASGCPQEAIWAAKRVYEAVDNFVVNTYNVNTNATDGEKFILDHPIVSNELSRQLRDLNEIINSKRDSESLKKTIKIIMERSKSESNDLFSEAT”, the “soluble on expression in E. coli” value is listed as “not soluble”.
Regarding “MSRPESVLQLARKFGEISAAQENDIHKSRLSLKLGGKENLTKPTLILSKSGPPTPIRHVAPTITHTLPNRPNIGGIASLKSEPKMSRPNMFKQMEKVESNTTTTAPPRQLNPNSIKDALLRWIQNRVAGYPNVNVTNFSSSWADGMAFCALIHRFAPNSFDFSKLDPNNRRYNFDLAFKVAEDNGIFPLLEVDDMIMMGDRPDWKCVFTYVQSFYKQFRDHP”, the “soluble on expression in E. coli” value is “not soluble”.
Then “MAETIISLLSPTLDIKSPYYFNPDYLHQFNMHTNTAIDKLSEAKDNYAIWKLRFFDLLQFTNKTGFIDGTLPKPDPSSPYYEPWKQCNAIVLHWLSNTVTDTLQNHVLQAETVHKAWEDLRRIFVPCIDFKIYELRQRLATLRQGGDSVAEYFGKLSKAWLELKAYDPVQECKCGGCDCESEKRATEAREKEQRYAFLMGLNKEFDYVKMKVMHKKIPPSVYQAYEMVVYSEAMMKWKMGGRI”, with “soluble”; and “MSLDQQSKEQLNIREMTKEDVPQVFDLERRSFNDSSWTIDAFYHEIEQNNFAKYFVLEFEQQIIGYLGLWIVIDQAQITTVAIDDNYRGYGLGQMLLKYGINYASHTCDVMSLEVRVNNKVAQHVYENLGFQYGGKRKNYYGEGEDAMVMWVNLNDEGHHHHHH”, with “soluble”.
Take “MSLTLTLKETLLASPGVLFLDDITIEKVESEKNLMILLPGLEYLVTRDLLRTKFPEYDFTGPENVRITVEGYSSLKNAVFEEIGKKAEAKDFEAFVVKTFGTLPEKFEPQTIRVTKISKNLFSVFLRFPDTYVTLNMLLRKERNVVVLKRNINVGDVIKEEDVRLEKRNVFEIYGEPFFDVSEVVGKISRRYLKEGTVLTADMVKDPPDVVKGQVVPAYVDMGSIKVTTFVEVLENGYLGETVRAMNVESRKYVFGRVERGPVLRILEVVEGHHHHHH”: the “soluble on expression in E. coli” value is recorded as “soluble”.
In the case of “MPRASISDTIPMTMASIDAGSVRFTARADKRHLNPLGGVHGGFAATVLDSVTGCAIHSILEAGVGYGTVDLSVKRVKAVPEDTPLVAEGRVLHVPCAIGSQRADLMLAPPRLGRDRRCPAGLEHHHHHH”, the “soluble on expression in E. coli” value was “not soluble”.
Then “MRVDAIAKVTGRARYTDDYVMAGMCYAKYVRSPIAHGYAVSINDEQARSLPGVLAIFTWEDVPDIPFATAGHAWTLDENKRDTADRALLTRHVRHHGDAVAIVVARDELTAEKAAQLVSIEWQELPVITTPEAALAEDAAPIHNGGNLLKQSTMSTGNVQQTIDAADYQVQGHYQTPVIQHCHMESVTSLAWMEDDSRITIVSSTQIPHIVRRVVGQALDIPWSCVRVIKPFVGGGFGNKQDVLEEPMAAFLTSKLGGIPVKVSLSREECFLATRTRHAFTIDGQMGVNRDGTLKGYSLDVLSNTGAYASHGHSIASAGGNKVAYLYPRCAYAYSSKTCYTNLPSAGAMRGYGAPQVVFAVESMLDDAATALGIDPVEIRLRNAAREGDANPLTGKRIYSAGLPECLEKGRKIFEWEKRRAECQNQQGNLRRGVGVACFSYTSNTWPVGVEIAGARLLMNQDGTINVQSGATEIGQGADTVFSQMVAETVGVPVSDVRVISTQDTDVTPFDPGAFASRQSYVAAPALRSAALLLKEKIIAHAAVMLHQSAMNLTLIKGHIVLVERPEEPLMSLKDLAMDAFYHPERGGQLSAESSIKTTTNPPAFGCTFVDLTVDIALCKVTINRILNVHDSGHILNPLLAEGQVHGGMGMGIGWALFEEMIIDAKSGVVRNPNLLDYKMPTMPDLPQLESAFVEINEPQSAYGHKSLGEPPIIPVAAAIRNAVKMATGVAINTLPLTPKRLYEEFHLAGLI”, with “soluble”; and “MGSDKIHHHHHHMATTNAASTVRELIREHYSALTQAERKFANALLDNYPAAGLASITIVASNVGVSSPTVARMVKKLGFKGYPEFHKALLSELEAKGVGPTKRRDNWSSEAPQEHLLNRFSQAVTNNLQQTFAHIDTERFDQATRQLADTEKRLYIVGGRITQALADYAFTHFQAVRPGVTHMTSSSGTWPHYVLDMEPGDTLLIFDVRRYETNLLRLTEIVKKRGAQIVLFTDQWGSPISTLADLTFHCRVEIPSGWDSNVATMMLLETMIASVQEQRWPDARDRYERLDELFDKTHFFRKFT”, with “not soluble”.
For the sequence “MSLIKDIRTYKLCYEGINDERDALAIKGLAEHPMEIVATEIETSDGYVGYGESLAYGCSDAVQVTIEKILKPLLLKEDEELIEYLWDKMYKATLRFGRRGIAIAGISGVDTALWDIMGKKAKKPIYKLLGGSKRKVRAYITGGYYSEKKDLEKLRDEEAYYVKMGFKGIKVKIGAKSMEEDIERLKAIREVVGEDVKIAVDANNVYTFEEALEMGRRLEKLGIWFFEEPIQTDYLDLSARLAEELEVPIAGYETAYTRWEFYEIMRKRAVDIVQTDVMWTGGISEMMKIGNMAKVMGYPLIPHYSAGGISLIGNLHVAAALNSPWIEMHLRKNDLRDKIFKESIEIDNGHLVVPDRPGLGYTIRDGVFEEYKCKSEGHHHHHH”, the “soluble on expression in E. coli” value is listed as “soluble”.
Then “AIAFRHTLSVDPSEQLSQDFADPVTDSGYESDEEAAAAATASLSGEEAALWNLVDPQQRLIFVLDGPAAQTLRVKRTGNLERQVVNIHRLPLERAPTVATSLLAATRPQHLVVALRTIEPHQAAAILTSTSYPSLSNVENASQVLVLANDLVQIDDPLLRPLWSDEGTQQNRIQLRWVETGCIGGITAALLAAGCWLRIPVLALLAVEDDDGPSPATLEALLLAAERFGCFTRADWEIRMPNLRQLLAKRQLLYI”, with “soluble”.
